Patent publication US20050053993A1, “Uses of an endothelial cell receptor” (priority 2002, published 2005)

Tests used:
HT-29 = test: Tumor cell proliferation, HT-29; format: cell-based; settings: HT-29, 72 hours
Description: (§1) Cell Proliferation Assay. The effect of rK5 and rK5 peptides on endothelial cells were assessed using a proliferation assay with 1% BSA and 3 ng/ml bFGF in serum-free media. Relative cell numbers in each well of a 96 well microplate after incubation for 72 hours in the absence or presence of inhibitors were determined by using the AQueous cell proliferation assay (Promega, San Luis Obispo, Calif.). For all other cell lines tested for proliferation, minimal growth media was used (Cao, Y., Ji, R., Davidson, D., Schaller, J., Marti, D., Sohndel, S., McCance, S., O'Reilly, M., Llinas, M., and Folkman, J. Kringle domains of human angiostatin. Characterization of the anti-proliferative activity on endothelial cells. (1996) J. Biol. Chem. 271, 29461-29467). Results are presented as the percent inhibition of control cell (bFGF-induced) proliferation.

PC3 = test: Tumor cell proliferation, PC3; format: cell-based; settings: PC3, 72 hours
Description: as §1

neutrophils = test: Neutrophil migration; format: cell-based; settings: concentrations up to 1000-fold higher than for endothelial cell migration; data not shown
HMVEC cells = test: Apoptosis of stimulated endothelial cells (histone ELISA); format: cell-based, human
Description: FIG. 9B is a graph showing the induction by rK5 of apoptosis in stimulated endothelial cells. The rate of apoptosis was measured in HMVEC cells using a histone detection kit (Markwell, M. A. K. Anal Biochem 1982, 125, 427-432.) HMVECs were grown in 96 well plates. Recombinant K5 at various concentrations was added to plates and incubated overnight. Apoptosis was determined from triplicate samples and the Apoptotic index was determined by dividing the absorbance from the treated cells by the absorbance from the untreated cells.
Assessment of Cellular Apoptosis: The effects of rK5 and rK5 peptide-induced apoptosis were determined with a histone ELISA apoptosis assay (Roche, Indianapolis, Ind.)(Mayr M, Li C, Zou Y, Huemer U, Hu Y, Xu Q. Biomechanical stress-induced apoptosis in vein grafts involves p38 mitogen-activated protein kinases. FASEB J. 2000 Feb.; 14(2):261-70) Cells (5000 per well) were grown in 96 well plates. rK5 and/or an antibody to GRP78 were added to plates and incubated overnight. Apoptosis was determined from triplicate samples and the Apoptotic Index was determined by dividing the absorbance from the treated cells by the absorbance from the untreated cells.

MDA 445 = test: Tumor cell proliferation, MDA 445; format: cell-based; settings: MDA 445, 72 hours
Description: as §1

P388 = test: Tumor cell proliferation, P388; format: cell-based; settings: P388, 72 hours
Description: as §1

[1] = system: endothelial cell migration; test: Endothelial cell migration induced by various angiogenesis inducers (FIG. 9A); format: cell-based, human; settings: aFGF, bFGF, IL-8, PDGF, TGF-β and VEGF; rK5 400 pM (100 pM for VEGF, PDGF)
Description: FIG. 9A is a graph showing inhibition by rK5 of endothelial cell migration induced by a variety of angiogenesis inducers including aFGF, bFGF, IL-8, PDGF, TGF-β, VEGF, HGF and […] at concentrations of 50 ng/mL, 15 ng/mL, 40 ng/mL, 1 pg/mL, 100 pg/mL 40 ng/mL and 250 ng/mL respectively. The concentration of rK5 used was 400 pM except for VEGF (rK5=100 pM), PDGF (rK5=100 pM) and HGF (rK5=10 pM). Membranes were covered, fixed and stained and the number of cells that had migrated to the upper chamber per 10 high power field counted. Background migration to DME+0.1% BSA was subtracted and the data reported as the number of cells migrated per 10 high power fields (100×). […]
Endothelial cell migration assays: The effect of rK5 on endothelial cell migration was determined by two different methods. […] After 4 h, migrated cells were measured by fluorescence (Frevert C W, Wong V A, Goodman R B, Goodwin R, Martin T R. Rapid fluorescence-based measurement of neutrophil migration in vitro. J Immunol Methods. 1998 Apr. 1;213(1):41-52). […] Growth factors were used, where indicated, at concentrations determined in preliminary experiments to give equivalent migration responses of about 100 cells migrated/high powered field (400×). […] Membranes were recovered, fixed and stained and the number of cells that had migrated to the upper chamber per 10 high power fields counted. […]

tumor cell lines = test: Apoptosis of various tumor cell lines under hypoxia; format: cell-based; settings: 500 nM rK5, hypoxia overnight; exceptions Lewis Lung and PC-3
Description: FIG. 15B is a graph showing the effect of rK5 on induction of apoptosis in various tumor cell lines tested under hypoxic conditions. Cells were plated in 96-well plates overnight. Half the plates were put in hypoxic chambers overnight at 37° C. with and without 500 nM rK5. Increased apoptosis was shown by an ELISA technique that measures the number of nucleosome fragments. The apoptotic index was calculated from the apoptosis rate of control cells (without K5 and with or without hypoxia). The samples were run in quadruplicate.

IC50 values for cell proliferation (HT-29): >100 µg/mL | IC50 values for cell proliferation (PC3): >100 µg/mL | IC50 values for cell proliferation (MDA 445): >100 µg/mL | IC50 values for cell proliferation (P388): >100 µg/mL
B1: rK5: recombinant kringle 5 fragment of human plasminogen (residues 450-543), expressed in E. coli or yeast (protein)
chain: LLPDVETPSEEDCMFGNGKGYRGKRATTVTGTPCQDWAAQEPHRHSIFTPETNPRAGLEKNYCRNPDGDVGGPWCYTTNPRKLYDYCDVPQCAA
inhibition of migration of neutrophils (neutrophils): failed to inhibit | induction of endothelial cell apoptosis (HMVEC cells): 1 nM | apoptosis of stimulated endothelial cells (HMVEC cells; overnight, FIG. 9B): induced | inhibition of endothelial cell migration induced by inducers of angiogenesis [1]: inhibited | induction of apoptosis in tumor cell lines under hypoxic conditions (tumor cell lines): induced apoptosis in 8 out of 10 tumor cell lines
